From patent publication US20160032001A1 (APEXIGEN, published 2016)
Read-outs that look alike come from different tables or passages of the source.

T1: RANKL expressed on the surface of 293 cells (UniProt O14788 1-317, limits assumed)
T1 construct: whole, on cells; also called RANKL-transfected 293 cells; cells expressing RANKL
T1 sequence (looked up): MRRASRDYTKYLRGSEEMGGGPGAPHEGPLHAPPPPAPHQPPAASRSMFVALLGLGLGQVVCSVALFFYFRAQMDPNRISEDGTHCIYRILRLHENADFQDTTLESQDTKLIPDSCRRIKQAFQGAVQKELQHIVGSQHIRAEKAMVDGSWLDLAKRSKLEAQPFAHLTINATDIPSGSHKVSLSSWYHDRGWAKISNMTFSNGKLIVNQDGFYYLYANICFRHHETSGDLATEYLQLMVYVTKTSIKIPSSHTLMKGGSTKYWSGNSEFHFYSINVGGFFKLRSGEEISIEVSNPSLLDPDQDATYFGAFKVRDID

T2: human RANKL protein (human, UniProt O14788 140-317, limits assumed)
T2 sequence (looked up): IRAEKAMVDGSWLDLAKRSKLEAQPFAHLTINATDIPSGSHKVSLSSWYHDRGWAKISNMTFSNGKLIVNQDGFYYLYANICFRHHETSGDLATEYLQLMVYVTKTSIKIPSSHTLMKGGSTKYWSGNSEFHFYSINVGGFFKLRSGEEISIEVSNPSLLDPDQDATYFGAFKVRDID


Assays:
[1] = biological target: T1, RANKL expressed on the surface of 293 …; test: flow cytometry (MFI) on RANKL-transfected 293 cells
human RANKL protein [2] = biological target: T2, human RANKL protein; test: competition ELISA: RANKL (0.5 ug/ml) pre-incubated with the antibody, then binding to coated human RANK (8 ug/ml) detected; blocked partner RANK
human RANKL protein [3] = biological target: T2, human RANKL protein; test: as above; remark: listed apart in the source
human RANKL protein [4] = biological target: T2, human RANKL protein; test: surface plasmon resonance
[5] = biological target: T1, RANKL expressed on the surface of 293 …; test: flow cytometry (MFI) on RANKL-transfected 293 cells; remark: listed apart in the source
human RANKL protein [6] = biological target: T2, human RANKL protein; test: cell-based or functional assay
human RANKL protein [7] = biological target: T2, human RANKL protein; test: competition ELISA: RANKL (0.5 ug/ml) pre-incubated with the antibody, then binding to coated human RANK (8 ug/ml) detected; blocked partner RANK; remark: listed apart in the source
[8] = biological target: T1, RANKL expressed on the surface of 293 …; test: flow cytometry (MFI) on RANKL-transfected 293 cells; remark: listed apart in the source

EC50 [1] [µg/mL] | IC50 (human RANKL protein [2]) [µg/mL] | Binder | also measured
0.108 | 0.0771 | clone 411 rabbit anti-RANKL antibody (antibody, V domains shown) VH: QSVEESGGRLVTPGTPLTLTCTVSGFSLSSGVVSWVRQAPGKGLEWIGYAWSGGPTYYANWAKGRFTISKSSTTVDLKITSPTTADTATYFCARGYNGMDPWGPGTLVTVSS VL: DMTQTPASVEVAVGGTVTIKCQASQNIGSNLAWYQQKPGQPPKLLIYKASTLASGVPSRFRGSGSGTEFTLAISDLECADAATYYCQQGYTTKDVVNPFGGGTEVVVK | –
– | – | clone 327 rabbit anti-RANKL antibody (antibody, V domains shown) VH: QSLEESGGRLVTPGTPLTLTCTVSGFSLSKYEINWVRQAPGKGLEWIGYIDVGSGTWYASWAKGRFTISKTSTTVALRITSPTTEDTATYFCSRQYNPMDLWGPGTLVTVSS VL: DMTQTPASVEAAVGGTVTIKCQASQNIGSNLAWYQQKPGQRPKLLIYSASTLASGVPSRFKGSGSGTQFTLTISGVQCDDAATYYCQQGYSVGNVNNAFGGGTEVVVK | IC50 (human RANKL protein [3]): 0.0416 µg/mL; Kd (human RANKL protein [4]): 2.13 nM; koff (human RANKL protein [4]): 0.0003 s⁻¹; kon (human RANKL protein [4]): 141000 M⁻¹ s⁻¹; EC50 [5]: 0.0871 µg/mL; IC50 in a RAW cell assay (TRAP activity, OD 405 nM) (human RANKL protein [6]): 0.0075 µg/mL
0.16 | 0.0545 | clone 415 rabbit anti-RANKL antibody (antibody, V domains shown) VH: QSVEESGGRLVTPGGSLTLTCTVSGFSLSNYEMNWVRQAPGKGLEWIGYIDVGSGTWYASWAKGRFTISKTSTTVDLKITSPTTEDTATYFCSRQYNPMDLWGPGTLVTVSS VL: DMTQTPASVEVAVGGTVTIKCQASQNIGSNLAWYQQKPGQRPKLLIYSASTLASGVPSRFKGSGSGTQFTLTISGVQCDDAATYYCQQGYSVGNVNNAFGGGTEVVVK | –
– | – | clone EBI-51-11 rabbit anti-RANKL antibody (antibody, V domains shown) VH: QSVEESGGRLITPGTPLTLTCTVSGFSLSTDVVSWVRQAPGTGLEWIGYTWSGGSTYYAIWAKGRFTISKTSSTTVDLKITSPTTEDTATYFCARGFNPFDPWGPGTLVTVSS VL: DMTQTPASVSEPVGGTVTIKCQASQNIGSNLAWYQQKPGQRPKLLIYRASTLASGVSSRFKGSGSGTQFTLTISDLECADAATYYCQQGYSAGNVDKHVFGGGTEVVVK | IC50 (human RANKL protein [7]): 0.0656 µg/mL; EC50 [8]: 0.0757 µg/mL
– | – | clone EBI-51-1 rabbit anti-RANKL antibody (antibody, V domains shown) VH: QEQLEESGGGLVKPEGSLTLTCTASGFDLSTYYYMCWVRQAPGKGLEWIACIYTGRASTYYATWAKGRFTISKTSSTTVTLQMTSLTAADTATFFCASKAGDIWYYGMDLWGPGTLVTVSS VL: DMTQTPASVSEPVGGTVTIKCQASQNIGSNLAWYQQKPGQRPKLLIYRASTLASGVSSRFKGSGSGTQFTLTISDLECADAATYYCQQGYSAGNVDNNTFGGGTEVVVK | IC50 (human RANKL protein [7]): 0.0753 µg/mL; EC50 [8]: 0.0867 µg/mL
0.203 | 0.138 | clone 416 rabbit anti-RANKL antibody (antibody, V domains shown) VH: QSVKESGGGLVTPGGTLTLTCTVSGFSLSRNAMSWVRQTPGKGLEWIGYIYSGSSPYYANWAKGRFTISRTSTTVDLKMTSLTTEDTATYFCARHVSDGGWYLDIWGPGTLVAVSL VL: DMIQTPASVEVVVGGTVTFNCQASQNIGSNLAWYQQKPGQPPKLLIYSASTLASGVPSRFKGSGSGTQFTFTISDVECTDAATYYCQQAYSISNVDNAFGGGTEVVVK | –
0.215 | 0.0754 | clone 420 rabbit anti-RANKL antibody (antibody, V domains shown) VH: QEQLKESGGGLVTPGGILTLTCTASGFSLRSNAMSWVRQAPGKGLEWIGYIYPGGAPHYASWAKGRFTISRNSTTVDLKMTSLTTEDTATYFCARHVSGGGWYLDIWGPGTLVTVSL VL: DMIQTPASVEVGVGGTVTINCQASQNIGSNLAWYQQKPGQPPKFLIYGASTLASGVSSRFKGSGSGTRFTFTISDVECTDAATYYCQQAYSVGNVDNAFGGGTEVVVK | –
0.0617 | 0.0537 | clone 447 rabbit anti-RANKL antibody (antibody, V domains shown) VH: QEQLKESGGGLVTPGGILTLTCTASGFSLRSNAMSWVRQAPGKGLEWIGYIYPGGAPHYASWAKGRFTISRNSTTVDLKMTSLTTEDTATYFCARHVSGGGWYLDIWGPGTLVTVSL VL: DMIQTPASVEVGVGGTVTINCQASQNIGSNLAWYQQKPGQPPKFLIYGASTLASGVSSRFKGSGSGTRFTFTISDVECTDAATYYCQQAYSVGNVDNAFGGGTEVVVK | –
